From publication PMC8996214, “Aptamer blocking S-TLR4 interaction selectively inhibits SARS-CoV-2 induced inflammation” come the findings set out here.

B1: ST-6 (structured_DNA)
DNA: AGCAGCACAGAGGTCAGATGAGGGCATCAAAGGGGGGAGGGCGGGTGGATTGGATGCCGACCTATGCGTGCTACCGTGAA

Chain of ACE2 (Q9BYF1 18-740): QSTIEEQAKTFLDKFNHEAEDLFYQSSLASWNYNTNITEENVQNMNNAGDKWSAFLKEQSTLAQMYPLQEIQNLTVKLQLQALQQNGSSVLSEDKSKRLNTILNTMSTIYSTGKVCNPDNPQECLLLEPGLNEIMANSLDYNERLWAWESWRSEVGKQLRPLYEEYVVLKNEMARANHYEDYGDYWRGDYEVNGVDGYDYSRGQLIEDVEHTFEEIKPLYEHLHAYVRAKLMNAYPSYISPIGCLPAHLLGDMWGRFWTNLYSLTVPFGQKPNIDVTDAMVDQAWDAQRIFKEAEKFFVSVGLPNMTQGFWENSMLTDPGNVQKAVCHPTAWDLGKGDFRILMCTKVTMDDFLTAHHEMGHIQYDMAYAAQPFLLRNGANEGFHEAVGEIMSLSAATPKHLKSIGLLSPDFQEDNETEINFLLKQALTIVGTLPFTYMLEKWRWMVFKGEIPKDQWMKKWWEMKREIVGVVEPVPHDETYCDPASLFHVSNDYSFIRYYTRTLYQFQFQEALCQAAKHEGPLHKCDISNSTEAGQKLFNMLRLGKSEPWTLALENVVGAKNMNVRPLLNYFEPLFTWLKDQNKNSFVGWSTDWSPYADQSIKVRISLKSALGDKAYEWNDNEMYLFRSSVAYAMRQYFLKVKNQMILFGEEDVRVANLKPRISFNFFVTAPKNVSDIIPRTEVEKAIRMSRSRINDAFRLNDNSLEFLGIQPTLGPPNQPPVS
Chain of HCoV-HKU1 spike protein (Q5MQD0 13-1300): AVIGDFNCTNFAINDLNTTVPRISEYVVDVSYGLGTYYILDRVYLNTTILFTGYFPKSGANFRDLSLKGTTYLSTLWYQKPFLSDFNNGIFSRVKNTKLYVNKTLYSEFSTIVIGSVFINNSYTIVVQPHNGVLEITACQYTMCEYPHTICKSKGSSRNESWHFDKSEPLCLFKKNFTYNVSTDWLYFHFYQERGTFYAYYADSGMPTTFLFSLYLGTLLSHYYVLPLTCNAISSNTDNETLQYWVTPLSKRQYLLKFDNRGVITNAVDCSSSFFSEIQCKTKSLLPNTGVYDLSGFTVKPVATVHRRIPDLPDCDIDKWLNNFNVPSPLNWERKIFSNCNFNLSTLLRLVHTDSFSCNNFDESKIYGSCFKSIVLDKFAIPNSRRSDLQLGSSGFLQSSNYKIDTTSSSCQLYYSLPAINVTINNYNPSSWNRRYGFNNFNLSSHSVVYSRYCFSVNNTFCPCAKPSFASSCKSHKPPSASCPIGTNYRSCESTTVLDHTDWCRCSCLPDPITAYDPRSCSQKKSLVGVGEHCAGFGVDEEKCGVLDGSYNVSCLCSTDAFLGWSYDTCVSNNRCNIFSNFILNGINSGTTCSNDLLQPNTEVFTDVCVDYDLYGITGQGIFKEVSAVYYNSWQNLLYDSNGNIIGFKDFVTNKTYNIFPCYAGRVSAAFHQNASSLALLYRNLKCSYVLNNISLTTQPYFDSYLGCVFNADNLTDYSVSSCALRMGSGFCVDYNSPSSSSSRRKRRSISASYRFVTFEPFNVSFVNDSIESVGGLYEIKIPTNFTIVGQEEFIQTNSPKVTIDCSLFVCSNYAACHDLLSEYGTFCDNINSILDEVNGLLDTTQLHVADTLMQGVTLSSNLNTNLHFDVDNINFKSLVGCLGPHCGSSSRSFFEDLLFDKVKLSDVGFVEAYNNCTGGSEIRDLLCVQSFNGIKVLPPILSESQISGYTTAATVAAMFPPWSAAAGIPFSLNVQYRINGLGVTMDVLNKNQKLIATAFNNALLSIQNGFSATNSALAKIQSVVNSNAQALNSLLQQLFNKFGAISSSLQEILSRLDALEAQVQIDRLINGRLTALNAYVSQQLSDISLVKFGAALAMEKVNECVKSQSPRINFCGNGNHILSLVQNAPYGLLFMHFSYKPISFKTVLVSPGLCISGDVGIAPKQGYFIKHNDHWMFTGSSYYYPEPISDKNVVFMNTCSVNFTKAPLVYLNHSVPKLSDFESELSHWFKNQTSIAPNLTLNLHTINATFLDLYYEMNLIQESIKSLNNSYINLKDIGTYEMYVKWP
Chain of TLR4 (O00206 24-631): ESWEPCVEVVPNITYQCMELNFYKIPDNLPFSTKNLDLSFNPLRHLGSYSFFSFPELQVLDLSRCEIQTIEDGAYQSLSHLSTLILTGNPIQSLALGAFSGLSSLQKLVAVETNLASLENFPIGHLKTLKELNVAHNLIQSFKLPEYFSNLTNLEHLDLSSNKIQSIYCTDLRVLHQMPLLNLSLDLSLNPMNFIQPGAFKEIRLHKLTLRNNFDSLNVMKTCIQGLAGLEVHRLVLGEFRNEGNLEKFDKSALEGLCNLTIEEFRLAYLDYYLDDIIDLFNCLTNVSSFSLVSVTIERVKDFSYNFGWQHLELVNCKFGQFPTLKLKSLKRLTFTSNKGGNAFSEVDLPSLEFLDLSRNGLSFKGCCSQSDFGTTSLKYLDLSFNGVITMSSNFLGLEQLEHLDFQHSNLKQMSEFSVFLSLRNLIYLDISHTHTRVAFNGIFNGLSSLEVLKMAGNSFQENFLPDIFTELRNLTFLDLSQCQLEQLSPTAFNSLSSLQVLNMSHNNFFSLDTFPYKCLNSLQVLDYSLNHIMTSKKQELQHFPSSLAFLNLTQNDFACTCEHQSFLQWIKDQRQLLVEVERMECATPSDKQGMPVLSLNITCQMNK

One data set has as its target SARS-CoV-2 spike trimer (SARS-CoV-2, UniProt P0DTC2). The experiment in a line: BLI. Particulars: protein: commercial; tags: His.
Turning to GGGGAGGGCGGGTGGATTGGATGCCGA (structured_DNA) [ST-6-2], the binding result was “binds”.
On to AGGGCATCAAAGGGGGGAGGGCGGGTGGATTGGATGCCGA (structured_DNA) [ST-6-1], for which the binding result is “binds”.
On the same count and under the same terms, as for B1, the entry is “binds”.

Another data set concerns the target HCoV-HKU1 spike protein (HCoV-HKU1, UniProt Q5MQD0). The data set can be described thus: ELISA. Particulars: protein: commercial.
As to GGGGAGGGCGGGTGGATTGGATGCCGA (structured_DNA) [ST-6-2], the binding result is “no binding”.
The same measure, in the same setting: as for AGGGCATCAAAGGGGGGAGGGCGGGTGGATTGGATGCCGA (structured_DNA) [ST-6-1], the entry is “no binding”.
Still for that read-out and setting: as for B1, the entry is “no binding”.

The next data set has as its target TLR4 (UniProt O00206 24-631). The experiment in a line: ELISA. Particulars: protein: commercial.
On to GGGGAGGGCGGGTGGATTGGATGCCGA (structured_DNA) [ST-6-2], for which the binding result is “no binding”.
On the same count and under the same terms, as for AGGGCATCAAAGGGGGGAGGGCGGGTGGATTGGATGCCGA (structured_DNA) [ST-6-1], the entry is “no binding”.
Same read-out and setting: then B1, with “no binding”.

A further data set addresses ACE2 (UniProt Q9BYF1 18-740). The experiment in a line: ELISA. To be noted: protein: commercial.
With GGGGAGGGCGGGTGGATTGGATGCCGA (structured_DNA) [ST-6-2], the binding result is on record as “no binding”.
For AGGGCATCAAAGGGGGGAGGGCGGGTGGATTGGATGCCGA (structured_DNA) [ST-6-1], the binding result was “no binding”.
Still for that read-out and setting: as for B1, the entry is “no binding”.

The next data set addresses SARS-CoV-2 spike RBD (SARS-CoV-2, UniProt P0DTC2 319-541). The data set can be described thus: ELISA.
Conditions: not given
With GGGGAGGGCGGGTGGATTGGATGCCGA (structured_DNA) [ST-6-2], the binding result is recorded as “no binding”.
In the case of AGGGCATCAAAGGGGGGAGGGCGGGTGGATTGGATGCCGA (structured_DNA) [ST-6-1], the binding result is given as “no binding”.
For the molecule B1, the binding result is “no binding”.

The target of a further data set is PDGF-AA (UniProt P04085 87-211). The data set can be described thus: ELISA. Particulars: protein: commercial; chain copies: 2.
Regarding GGGGAGGGCGGGTGGATTGGATGCCGA (structured_DNA) [ST-6-2], the binding result is “no binding”.
Consider AGGGCATCAAAGGGGGGAGGGCGGGTGGATTGGATGCCGA (structured_DNA) [ST-6-1], for which the binding result was “no binding”.
As for B1, the binding result is on record as “no binding”.

A further data set deals with SARS-CoV spike protein (SARS-CoV, UniProt P59594 14-1195). The experiment in a line: ELISA. Particulars: protein: commercial; chain copies: 3; label: 5'-biotin (BLI, ELISA); Cy3 (flow cytometry); FAM (imaging); G-quadruplex.
Regarding GGGGAGGGCGGGTGGATTGGATGCCGA (structured_DNA) [ST-6-2], the binding result was “no binding”.
For the molecule AGGGCATCAAAGGGGGGAGGGCGGGTGGATTGGATGCCGA (structured_DNA) [ST-6-1], the binding result was “no binding”.
For the molecule B1, the binding result was “no binding”.

Another data set deals with MERS-CoV spike protein (MERS-CoV, UniProt K9N5Q8 18-1296). The data set can be described thus: ELISA. To be noted: protein: commercial; chain copies: 3; label: 5'-biotin (BLI, ELISA); Cy3 (flow cytometry); FAM (imaging); G-quadruplex.
Chain of MERS-CoV spike protein (K9N5Q8 18-1296): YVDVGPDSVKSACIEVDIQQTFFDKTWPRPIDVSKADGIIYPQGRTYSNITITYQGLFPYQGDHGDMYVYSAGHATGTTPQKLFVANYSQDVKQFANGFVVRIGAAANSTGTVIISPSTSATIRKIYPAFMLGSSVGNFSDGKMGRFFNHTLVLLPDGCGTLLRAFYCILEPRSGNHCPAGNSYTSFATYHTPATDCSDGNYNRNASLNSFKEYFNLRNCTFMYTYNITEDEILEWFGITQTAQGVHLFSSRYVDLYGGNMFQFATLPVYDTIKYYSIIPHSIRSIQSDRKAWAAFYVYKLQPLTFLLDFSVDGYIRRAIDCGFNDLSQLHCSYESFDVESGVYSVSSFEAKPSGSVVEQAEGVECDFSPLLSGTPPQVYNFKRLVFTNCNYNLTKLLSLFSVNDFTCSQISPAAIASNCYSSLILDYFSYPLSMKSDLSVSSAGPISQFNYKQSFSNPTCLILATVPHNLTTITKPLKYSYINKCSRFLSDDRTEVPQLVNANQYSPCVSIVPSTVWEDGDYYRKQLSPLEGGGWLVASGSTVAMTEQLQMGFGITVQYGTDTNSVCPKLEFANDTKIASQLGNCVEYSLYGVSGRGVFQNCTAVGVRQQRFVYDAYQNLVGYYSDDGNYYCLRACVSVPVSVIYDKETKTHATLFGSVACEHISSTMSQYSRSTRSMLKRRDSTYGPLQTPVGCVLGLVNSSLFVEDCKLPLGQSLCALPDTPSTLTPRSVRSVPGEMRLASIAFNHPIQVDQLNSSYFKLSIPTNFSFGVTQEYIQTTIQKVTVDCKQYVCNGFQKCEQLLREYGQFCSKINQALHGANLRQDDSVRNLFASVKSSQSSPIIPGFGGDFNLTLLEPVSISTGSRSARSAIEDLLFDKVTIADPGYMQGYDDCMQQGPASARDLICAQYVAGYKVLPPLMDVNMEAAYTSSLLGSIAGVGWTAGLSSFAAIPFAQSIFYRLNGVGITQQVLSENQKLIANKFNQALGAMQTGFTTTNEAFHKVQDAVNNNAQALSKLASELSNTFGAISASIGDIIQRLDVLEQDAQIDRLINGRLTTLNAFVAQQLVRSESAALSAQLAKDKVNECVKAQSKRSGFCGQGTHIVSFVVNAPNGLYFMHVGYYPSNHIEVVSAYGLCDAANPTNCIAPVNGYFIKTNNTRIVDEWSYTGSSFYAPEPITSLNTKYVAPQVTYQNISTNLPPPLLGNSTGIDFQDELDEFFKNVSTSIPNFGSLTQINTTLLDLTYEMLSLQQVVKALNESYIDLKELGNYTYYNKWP
For the molecule GGGGAGGGCGGGTGGATTGGATGCCGA (structured_DNA) [ST-6-2], the binding result was “no binding”.
Same read-out and setting: as for AGGGCATCAAAGGGGGGAGGGCGGGTGGATTGGATGCCGA (structured_DNA) [ST-6-1], the entry is “no binding”.
B1: the binding result is reported as “no binding”.
